The results in this text go back to patent publication US20230120167A1 (AFFILOGIC, published 2023).

The target in one assay is T1, mouse PD-L1 (mouse, UniProt Q9EP73 19-238, limits assumed).
T1 construct: also called murine PDL1
The assay can be described thus: Surface Plasmon Resonance.

A further assay has as its target T2, human PD-L1 (human, UniProt Q9NZQ7 19-238, limits assumed).
T2 construct: also called PD-1 ligand 1; CD274
Nature of the assay: Surface Plasmon Resonance.

A further assay has as its target T3, HSP110 (human, UniProt Q92598 1-858, limits assumed).
T3 construct: also called HSPH1; Hsp105

T2 sequence (Q9NZQ7 19-238 limits assumed): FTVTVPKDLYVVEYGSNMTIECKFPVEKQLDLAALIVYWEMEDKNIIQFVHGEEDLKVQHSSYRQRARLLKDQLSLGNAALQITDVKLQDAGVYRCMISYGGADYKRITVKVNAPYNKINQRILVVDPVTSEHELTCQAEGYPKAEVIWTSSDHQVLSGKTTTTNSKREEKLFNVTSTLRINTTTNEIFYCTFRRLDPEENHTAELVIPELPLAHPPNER
T3 sequence (Q92598 whole entry): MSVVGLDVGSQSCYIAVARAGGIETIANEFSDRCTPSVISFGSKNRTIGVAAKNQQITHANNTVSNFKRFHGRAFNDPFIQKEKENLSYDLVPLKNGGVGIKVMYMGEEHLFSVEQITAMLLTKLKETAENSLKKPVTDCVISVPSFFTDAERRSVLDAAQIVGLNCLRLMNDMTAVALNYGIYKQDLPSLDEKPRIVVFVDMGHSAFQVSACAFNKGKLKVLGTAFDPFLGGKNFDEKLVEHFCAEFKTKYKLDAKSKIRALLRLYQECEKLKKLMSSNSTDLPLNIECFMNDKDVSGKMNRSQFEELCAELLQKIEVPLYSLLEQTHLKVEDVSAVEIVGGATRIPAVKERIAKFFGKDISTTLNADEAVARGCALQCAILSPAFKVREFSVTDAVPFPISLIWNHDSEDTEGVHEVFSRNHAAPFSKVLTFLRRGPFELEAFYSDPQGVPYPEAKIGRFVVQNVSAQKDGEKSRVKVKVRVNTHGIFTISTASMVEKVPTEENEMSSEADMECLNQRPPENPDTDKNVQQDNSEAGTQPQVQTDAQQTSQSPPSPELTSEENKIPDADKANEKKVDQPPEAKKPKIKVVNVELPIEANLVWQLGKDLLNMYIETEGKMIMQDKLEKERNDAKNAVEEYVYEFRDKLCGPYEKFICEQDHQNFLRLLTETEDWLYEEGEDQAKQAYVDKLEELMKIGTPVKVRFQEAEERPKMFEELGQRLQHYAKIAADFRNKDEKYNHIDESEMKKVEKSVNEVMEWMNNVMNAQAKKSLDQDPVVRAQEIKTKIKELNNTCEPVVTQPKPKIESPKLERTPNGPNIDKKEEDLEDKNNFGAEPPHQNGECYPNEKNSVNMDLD
T1 sequence (Q9EP73 19-238 limits assumed): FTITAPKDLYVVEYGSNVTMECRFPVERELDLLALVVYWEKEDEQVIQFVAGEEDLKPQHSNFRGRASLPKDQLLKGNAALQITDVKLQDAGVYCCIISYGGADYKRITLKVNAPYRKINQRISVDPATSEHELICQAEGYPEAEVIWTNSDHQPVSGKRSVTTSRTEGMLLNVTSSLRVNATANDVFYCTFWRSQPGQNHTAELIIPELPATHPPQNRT

B1: B11 (Sac7d variant binding to PD-L1, SEQ ID NO: 21) (designed binder)
chain: MVKVKFVIGGEEKEVDTSKIKTVRRIGKYVLFKYDDNGKTGMGLVSEKDAPKELLDMLARAEREKK
notes: also called NF2; NF-B11
B1: the values for the Kd with mouse PD-L1 and in the assay with human PD-L1 were roughly 3.2 nM and roughly 15 nM, respectively.

B2: A-C2 (Sac7d variant binding to HSP110, SEQ ID NO: 27) (designed binder)
chain: MVKVKFMWRGEEKEVDTSKIWDVWRSGKTVYFHYDDNGKMGQGKVHEKDAPKELLDMLARAEREKK
notes: also called NF1; anti-HSP110 variant
In the assay with HSP110, B2 returned a Kd of less than 1 nM.

One may read the Kd as the free concentration of one partner at which half of the binding sites on the other are occupied at equilibrium, for simple one-to-one binding. A lower Kd goes with a tighter complex.
